# According to the DeepSol protein solubility set:
# Assay: soluble on expression in E. coli; label from the status in PepcDB or PDB records
row,Sequence,soluble on expression in E. coli
1,MSLEENMEGALFLENESFCEEIPDNPNIEKEKPLEFISSGNLEIDRKLEGGIPVGSLCLLEGAKDSGKSIFMQQIMWGALNQDKKVLALTTEKTSRNLLNNMESLKQDISDYFIIGRSKIFEINASDVEENPEISENLLEIMLECIKECEEELILIDSLTILAVNASENTLLNFFRECIKLCDKKKTILISVHGYAFSQEVLYRLRSVCNSCLELRIEQVGDKLIKTMEIQKLRGAKKTTGNMLSFDVNSECGLKIIPVSKVKAEGHHHHHH,soluble
2,MSLEFLEQEGQEVLTKEIKAGFCEITPSSITEQTTKPQLDETQLVDEYVHTKELETTPIPISFATKEVLFEEVFNTPSTQQVDESVLVNEYIELTQQIKNASEQVSSNHTHKFSVATEPAATKAVSETMLLDDYVEMVEQDVQAQTALPQAALDPTVSLTFSSPIDSNAILVYPEMKVPHVFDTVAPTTTTVPLDQTQLLDELVEVPVLTHTVTPAPLQPKAAPTNFALDQTQLVDELVTVPLTHTLVNESAPVTPVVVTSPAAEHSFSITTVDKANLTNALSQTVVIKPAEDSAHQSAVLDKEIATKQAQLQQLQAQIELRQAQLETPPVTYMGVEEYKLLPVQDVVPVQPTVSFEMTLLQEQLDKALKHNAALQIQLEEQLAKPLQYDQSPVLQERIELLQNQNTNLTQELNELQQKLFKSQNNSLLLARLEEENRTLKQHLQNNLPEANQLNFVLEKQLEQLQQDKHSLTLQIEQYKFDSKKHQEQLALIPSLRSEINSLETEVISLKQTNQRLSLIERENNFLKTEIKQLRETKLNDENTKYRNLLKQYELMRADSDAKLKELEHEQHLAHQHHQEQLAQLQRHNEALVKELDQVKATNFELGLAAQGFEQQKVVLEQKNSSLLASLQAAEENVQALGITNSELQNQLNVLEFTHKEKTAFDSKTLTLTKQQLEQTQFDLSLTQEQLATFKQQNQSLTDKLMASETQLNHLQQSDENLTQLQTQHELLQESYNKLQDEANHTQQQFHQAQNELDAAHQQLALFKQNNEELTDKCSNIQNELHDLNRVKTNWENLNTEHNLLQDKYAQQKEQMQHEHSNLAQIQAEHELLQESYNKVKAELNEIQITNLNEANAQYQDLLSAYELLQSNHNKLKQELQVLNQVNLEKQQLAQKLHNTHQSLSQTHAELTQLQAAYNNLQATPPVSDELLEQFNQVQLEKQRLLQQNLALVHELQYFNELNSSQTHEIKTKQDETVKEVIIVEKEIPVPPEKKPRLKKRDIVIENKEDALGKLSKKERIQAYAERLAKINGKQEGHHHHHH,not soluble
3,MSLEFQNLANRILDEKSRSFSQSNQTALETLLKPFREQIEGFQKRVNEIHSESVKGNAGLEAEIKKVLEIGLNMSQEASNLTSALKGEKKTLGNWGEVQLERALQLAGLEENVHYRAQAHFKDEQGGRNYPDFVLNLPDEKHLIIDSKMSLVAYESAVNSEDDFERERLLKEHISALKTHINDLHKKDYSNLIGMCSPNFVLMFIAVEPAYIEALKADPALFNYGYERNVIMVSHTTLMPILRTVANLWRIERGNAEAKEIAEKAGEIYNQICLVAERLNKLGNTLSTVSNQYNSTVTALVGQQGLVGKVERFKTLSAKANKTMPDVDLLNNQLDLARLNVLNQENLQEGHHHHHH,soluble
4,MSLEGRRICVDSCPITCITFCAAHTALGPHHGRSGCAVVIRSMDEKLKRVAHAVSDMGLMSKILGESGSSRNTEDYVELNANEFEMTGTELERQVRIARISDKQDVIDIKDAVYDGDVVVADITRHSTQDRTMEHISDELKQVANEVGGDIVQKDDDQLIITPAGVGIARERLGREGHHHHHH,soluble
5,MSLEGVENKVIVLAGMIGAGKSSYTELIANELGTKAFYESIKDNRILEMFYDDPKRWAFALQIYFLNTRFRSIKAALTDQNNVLDRSIYEDALFTQINFEEGNISEPEMDTYLDLLDNMMEELAYMPKKAPDLLIYLRGSLDTVLSRIALRGRPYEQIDDNPGLLEYYKHLHSRYDSWFASYDKSETLVINIDEIDINKPNDADYVMQLIHEKLKREGHHHHHH,soluble
6,MSLEKMEDHFILCGYGLMGREIIKELPKDKVVVIDSDIGKVSAAREDGYVAVHGDATDDFTLEKAGIGKAKALICCMSDASNAFAILTAKELNPRIKTVAILRSPDAEKKMRRVGVDILLSPYRDAAKKIISLLSEKAVAEFVETVISGAKSLNLEKVVADEYMDGKTLRELDLRRRTGCIVVAVVRRGDVILPEADTRLEKGDILYILCSGEAPLELEGHHHHHH,soluble
7,MSLEKYGNVNDFLDDDLVKNGNPDVYIVVGENSATPDVTSANKISAKIGTMTYTEKVVEDTSTTGYQIIGESESINLLDGTDKLDSAGTKKSWILVIGADDSYSDYFDDDEGNSFSYSEFSEADKTRSLGELGYLLKLYDIDPKNHFESDDDASELVFVRITDSDKNANSQTYNIEKDMVYVSIVYPNQISAFKLAKELEEGYEIPFLGDKYRIVKIDEDDDIIYLGTASYEGTIAHNEYISSGEYQVVLGEILENEDEYRVEISVLRNGNMIEEHTETEGHHHHHH,soluble
8,MSLEQLNERTVLEYVEKTDLRKSILGDGKLSAQIISEGNVNLIFRICNIENGNSVILKQALPYAWRYPDFKMPVDRQRIEYETLSIESQYAPDYVPKIYFYDNKSHVLVIEDLKELKVMREALIDGEIFPKVAEHIGIFMAKTLFYTSDLYLSSGKKKEMVINFSNPVLCKVQEDLVFTQPYIDHPNNKWSKPLDEIVKKIHQDDKIRGEIFYFKELYMTKSQALIHNDLHTGSIMLNEKTTKVIDPEFAFYGPMAHDIGTYFANLAIAYAAQEAHRVEPGTRNVYREWIAESFEETWNVFQQRFLNAWEKDSNGEWPSESYRENYMLRLLKESAGFGAAEIFRRTIGMAHVHDFWTIKDENIRAKSESIALYIAINWINMWKDVEKIQDLSQVMKNSKPLEGHHHHHH,soluble
9,MSLEREKVELFKEVLKKLHKGEDVESLKKQFGELLSQIPPFEIPVIEQELLKSGEIDVRDIIKMCDLHVEFFRGAVSEAGREIEKLPNGHPLRTLYEENKQILKDAEALSLLASSMFSLPKDDPRRKQFYEKLVQHVSELHRIGLTHYTREEMLIFPYIERRGITAVPTVLWSKHDETRLKIRLLLNLLKKEESDERLKEEALELSRMLSDMVFRENNILYPTLKVLLTEGEWKAIKMLEKDIGYYKIEVTEEWETPEKPLLPHRNCLRRPIPFRGLGGSRHVYHLQIQEGHHHHHH,soluble
10,MSLERLRVAAYCRVSTDSEDQLNSYKSQVQYYTDMIKKNKEWVLADIYADEAITGTQVTKREDFQRMINDCMNGEIDMVITKSISRFARNTLDTLKYVRMLKERNIAVYFEDEKINTLTMDGELLLVVLSSVAQQEVENISANVKKGLKMKMKRGELVGFQGCLGYDYHPEDKTITVNQEEAEIVRYIFNRYVDGAGGSVIGQELENLGYKTKYGSSTWAPSTVIGIIKNEKYKGDILLGKTFTVDPISKRRLENMGEEDKFYMKDHHEPIISEEVFEKAQEILNRRNKNREGHHHHHH,soluble
11,MSLESKYTVLDMFSGAGGLTEGFFQQGFKFVSHIEKNCHARNSLETRAIYHSLKDSSNERIYRDYISGNLNRDEFIHKFKELELTPAGLLQGEVTESNETTMIKEIKEHLKVIDSDSVDVVIGGPPCQAYSVAGRGRKPKEMKDDPRNYLYRHYISFLKSFEPKIFVFENVPGIKSAINGIIFSNLHEELEKLGYKTEAHMLNAKDFSVLQERNRIIFIGWKNEHDLSYPDFLKTPLGRFHVSSLLNDLPPLQAGEGTEGPAKYTKPFSWSSEYLQRFKIREKKDILIQHNARIHNPRDRTIYRLAIEKWDKERKRLKYNELSPELQTHKNKTSFLDRFKVVNQYGYSHAILAHISKDGHYFIHPDIHQARSLTVREVARIQSFPDNYKFEGPRIAQYAQIGNAVPPLMAKGIAVEIEKMLEEISEGHHHHHH,not soluble
12,MSLESLVPYNETVSTEVQFAKALEKYKFDLLHAKSNFHDQDQEQNTADVNNQHLQTQAQSSSPFDIVQKFADIAAANAYSVLPDQLSSNIDDDVYDQDFTNWDLEMKFWRLVENLNYYRVFCYENEVFGKEKEIGELYAILDWLQYHSAGEREHDQILKDQLGNEDENGNGDEEEKLLGTRSKWINTRLSIENGVYDALSGKNSNDQLIQEMDVDAPLRSGMHVDAKDAELDSKNFQAIYKLVVLGEYTDAIEFANETGNHALAVILAGAISFVEDDDQVMELANEVEGEGNIKLSASTRDKTIWVRLVYKLSKNTNLDPNERLIYSYLSGGDISENLKRASDSYEESINILVRQLLTYSELQKMHLNSFVEFTPPAPQANSMKDILNIVSNSLGSRAAEESRHPVRILMAAIMLDDLDPIISDLNDSTNDNILRILVHASLFLALLRSPQNPEQLNALITLYISKLTENNQTELVPLYLSFIPDERDARETYSLILASITDKEQRRKQLEIAKGISQSHQQSPLPLLQSQPSSHSNEDTEMVPIDDVEQDKLVNVLRRTVERVMDETEEYYNPGNEPFAIVDSGSEGHHHHHH,soluble
13,MSLESPISEKKPPVIVQEVEQKPEVVEKENILIEQEKEVIKPLDVPLILQKPELMRGCEVTSLAMVLQFSGVKVDKMELASKIHYVPFQSNGLKGNMHKGFIGDMATFDKPGLGVFVEPILELAKLYVPDEKVMNLSYKEPEHIYEAIDRGLPVWVLTNARFKRLPDNQFYTWRTDTGEMKVTYHQHSVVVTDYDDQYVYINDPLKTDKHRAINRNNFEQSWIQMGRQAMTISIEGHHHHHH,not soluble
14,MSLEVKLNENERIDDLQCKGLKIIQKKAGFCFGLDAVLLANFADIKKGDTVIDLGTGTGIIAILIAGKTEAKSIIGLEIQEEMAEMAQRSVKLNNLEDRVKIVCGDIKNSVEMFGASKFDVVVTNPPYMNQGGGLLNISDTKAISRHEIKCTLEDVIKASSKLLVPGGQFAMVHRPDRLVDIIWLMRKYSIEPKYLQFVHPYPRKKANLILIKGARQGRVQLKMLEPLYVYDENGNYSKEIDNIYGREVRNEGHHHHHH,soluble
15,MSLEVRWNEYLSRNGSLFSSDELSGASPPSVFVGSYGYPRVGVGPMVPPVHGDTSLMDAPERWAGRPLDEIVNYRLSLVRGIRKTRVTGTSGRYIEGLQEAAMSRRPVDSDIRFEKPVSPAALADGCCAPFGPVGEIRRASFGGSSADGAIERAYYDRDLGAADAAVALYDGGTEISRIQGCLSVGMLGRRRKLVPTRWSITAVDDMVSKRLVGRIKDAPVSDAHQVFHYVHMGNLFSVVLFPHRWLFEMMEAYYSGGVLGFGADHEDARGLDHAPATAGAHFASRLAVAEHLCGRGVQAGALVLREIRAEYSVPVGVWQVREGLRAAMAQKPFVAGSLDEAIDEACRPMSISRNEWLSHGSIMRLVRQRTLSEFFEGHHHHHH,not soluble
16,MSLFLKDDSIQIREVWNDNLQEEMDLIRDVVDDFPYVAMDTEFPGIVVRPVGTFKSNADYHYETLKTNVNILKMIQLGLTFSNEQGNLPTCGTDKYCIWQFNFREFDLDSDIFALDSIELLKQSGIDLAKNTLDGIDSKRFAELLMSSGIVLNENVHWVTFHSGYDFGYLLKLLTCQNLPDSQTDFFKLINVYFPTVYDIKHLMKFCNSLHGGLNKLAELLEVERVGICHQAGSDSLLTSCTFRKLKENFFVGPLHKYSGVLYGLGVENGQVAI,soluble
17,MSLFVSLSEKKKFLTWLVNTAPFGRREVLWILNYLLTHDAILNNVHFVENVEKTDRGIRVVADGLGKEPLLLFIQAQEFTDPEQIFHEIRMNWRKALYLECVFPEAWQTSQYLSVLEDNPFAPWNEQVDQEVARAIDQYFKQEEQTQRMALLKAQIDDALETGNKEAFLELSDELNRLKQQEGHHHHHH,soluble
18,MSLFYEEVFSDLKEEEKALLEFISSGNLEIDRKLEGGVPVGSLCLLEGGNDSGKSIFLQQIMWGALNQDKRVLALATEKTSKELLNQMESLKHGISDYFIIGRAKIFEINAGYVEENPQLSESLLQVLLECIKRCKEELILIDSLTIFAVNASENAVLNFFTECVKLCDNGKTILISVHGYAFSQSVLYRLRSVCSVCLELRIEQVGDQWIKTMEIQKLRGARKTRGNLLSFDVDSKFGLKIIPVSKVKAEGHHHHHH,soluble
